From US20240317847A1 (Bayer, published 2024)
Like-named read-outs stand apart in the source and are kept apart here.

T1: human IL-11 (human, UniProt P20809 22-199)
T1 construct: bought from Invigate; also called hIL-11; hIL11
T1 sequence: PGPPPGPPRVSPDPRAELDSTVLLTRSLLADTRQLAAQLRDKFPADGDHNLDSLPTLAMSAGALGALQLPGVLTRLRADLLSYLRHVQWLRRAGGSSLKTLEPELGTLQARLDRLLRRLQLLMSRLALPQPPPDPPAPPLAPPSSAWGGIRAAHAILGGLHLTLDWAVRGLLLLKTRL

T2: murine IL-11 (mouse, UniProt P47873 22-199)
T2 construct: bought from Invigate; also called mIL-11; mIL11
T2 sequence: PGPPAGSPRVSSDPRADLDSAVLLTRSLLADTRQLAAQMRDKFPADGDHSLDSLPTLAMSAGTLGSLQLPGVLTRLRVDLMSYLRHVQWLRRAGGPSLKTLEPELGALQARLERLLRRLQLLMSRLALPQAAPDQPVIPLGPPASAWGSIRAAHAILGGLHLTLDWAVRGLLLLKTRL

T3: cynomolgus IL-11 (cynomolgus, UniProt P20808 22-199)
T3 construct: Invigate, lot #C290621-19; also called cIL11; cynoL-11
T3 sequence: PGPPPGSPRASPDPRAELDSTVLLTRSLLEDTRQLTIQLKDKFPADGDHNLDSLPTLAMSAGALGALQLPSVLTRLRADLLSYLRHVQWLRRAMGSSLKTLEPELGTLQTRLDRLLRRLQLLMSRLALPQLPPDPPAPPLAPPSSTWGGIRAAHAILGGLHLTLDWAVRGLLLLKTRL

T4: rat IL-11 (rat, UniProt Q99MF5 22-199)
T4 construct: Invigate, e.g. lot #C301019-19; also called rIL11
T4 sequence: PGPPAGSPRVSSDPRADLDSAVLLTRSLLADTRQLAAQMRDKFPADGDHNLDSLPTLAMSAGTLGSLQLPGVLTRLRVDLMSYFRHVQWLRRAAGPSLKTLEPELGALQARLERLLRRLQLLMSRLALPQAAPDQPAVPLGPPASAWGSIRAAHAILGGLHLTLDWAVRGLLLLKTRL

T5: murine IL-11 (mouse, UniProt P47873 22-199)
T5 construct: Invigate, e.g. lot #C210819-09; biotinylated where coated in the ELISA; also called mIL-11; mIL11
T5 sequence: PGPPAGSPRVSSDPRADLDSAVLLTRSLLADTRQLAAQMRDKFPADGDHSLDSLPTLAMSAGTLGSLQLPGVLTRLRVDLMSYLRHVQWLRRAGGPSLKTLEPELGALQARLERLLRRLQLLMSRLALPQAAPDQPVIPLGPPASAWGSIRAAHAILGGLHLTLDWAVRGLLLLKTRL

T6: human IL-11 (human, UniProt P20809 22-199)
T6 construct: Invigate, e.g. lot #C121021-19; biotinylated where coated in the ELISA; also called hIL-11; hIL11
T6 sequence: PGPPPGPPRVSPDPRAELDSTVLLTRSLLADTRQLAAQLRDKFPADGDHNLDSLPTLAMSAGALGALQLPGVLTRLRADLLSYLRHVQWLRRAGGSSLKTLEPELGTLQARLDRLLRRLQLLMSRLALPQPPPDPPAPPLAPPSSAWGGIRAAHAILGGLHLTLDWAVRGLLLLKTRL


Columns and labels:
human IL-11 [1] = biological target: T1, human IL-11; assay: SPR, antibody captured, IL-11 as analyte
Method: (§1) Antibodies were captured via anti-mouse Fc IgGs (“Mouse antibody capture kit, Order No. BR100383, Cytiva) covalently amine coupled to a Series S CM5 sensor chip (Cytiva). The amine coupling was carried out according to the manufacturer's instructions using 1-ethyl-3-(3-dimethylaminopropyl) carbodiimide hydrochloride (EDC), N-hydroxysuccinimide (NHS) and ethanolamine HCl, pH 8.5 (“Amine Coupling Kit” BR-1000-50, Cytiva.). Human IL-11 (Invigate, e.g., lot #C121021-19), and murine IL-11 (Invigate, e.g., lot #C210819-09) were used as analytes. […] Based on that experiment an IL-11 concentration range was chosen to optimally determine kinetics and affinity of anti-IL-11 antibodies in multicycle kinetics mode. The sensor surface was regenerated with glycine pH 1.7 after each antigen injection. Obtained sensorgrams were double referenced (subtraction of reference flow cell signal and buffer injection) and were fitted to a 1:1 Langmuir binding model to derive kinetic data using the Biacore T200 Evaluation software or the Biacore Insight software.
(§2) For the 2nd round of germlining, single reversions were then combined on DNA level, expressed and purified as described in Example 15, and tested by SPR as described in Example 16.

murine IL-11 [2] = biological target: T2, murine IL-11; assay: SPR, antibody captured, IL-11 as analyte
Method: as §1, §2

human IL-11 [3] = biological target: T1, human IL-11; assay: cell-based or functional assay
murine IL-11 [4] = biological target: T2, murine IL-11; assay: cell-based or functional assay
cynomolgus IL-11 = biological target: T3, cynomolgus IL-11; assay: SPR, antibody captured, IL-11 as analyte
rat IL-11 = biological target: T4, rat IL-11; assay: SPR, antibody captured, IL-11 as analyte
murine IL-11 [5] = biological target: T5, murine IL-11; assay: SPR, antibody captured, IL-11 as analyte
human IL-11 [6] = biological target: T6, human IL-11; assay: SPR, antibody captured, IL-11 as analyte
murine IL-11 [7] = biological target: T5, murine IL-11; assay: cell-based or functional assay; remark: listed apart in the source
human IL-11 [8] = biological target: T6, human IL-11; assay: cell-based or functional assay; remark: listed apart in the source

Row | Binder | Kd (human IL-11 [1]) [nM] | Kd (murine IL-11 [2]) [nM] | Efficacy (%), RGA (human IL-11 [3]) [%] | IC50, RGA (human IL-11 [3]) [nM] | Efficacy (%), RGA (murine IL-11 [4]) [%] | IC50, RGA (murine IL-11 [4]) [nM] | Kd (cynomolgus IL-11) [nM] | Kd (rat IL-11) [nM] | Kd (murine IL-11 [5]) [nM] | Kd (human IL-11 [6]) [nM] | RGA Efficacy (%) (murine IL-11 [7]) | RGA IC50 (murine IL-11 [7]) [nM] | RGA Efficacy (%) (human IL-11 [8]) | RGA IC50 (human IL-11 [8]) [nM]
1 | TPP-21150 (antibody, V domains shown) VH: EVQLLESGGGLVQPGGSLRLSCAASGFTFSSYGMHWVRQAPGKGLEWVSVISYDGSYKYYADSVKGRFTISRDNSKNTLYLQMNSLRAEDTAVYYCAAGVPDYWGQGTLVTVSS VL: not shown | 5.6 | 1.4 | 46.9 | 12 | 92.2 | 1.6 |  |  |  |  |  |  |  | 
2 | TPP-21153 (antibody, V domains shown) VH: EVQLLESGGGLVQPGGSLRLSCAASGFTFSSYGMHWVRQAPGKGLEWVSVISYDGSYKYYADSVKGRFTISRDNSKNTLYLQMNSLRAEDTAVYYCAAGVPDYWGQGTLVTVSS VL: not shown | 10 | 3.6 | 34 | 26 | 81.2 | 3.4 |  |  |  |  |  |  |  | 
3 | TPP-27154 (antibody, V domains shown) VH: EVQLLESGGGLVQPGGSLRLSCAASGFTFSSYGMHWVRQAPGKGLEWVSVISYDGSYKYYADSVKGRFTISRDNSKNTLYLQMNSLRAEDTAVYYCAAGVPDYWGQGTLVTVSS VL: QSVLTQPPSASGTPGQRVTISCTGSSSNIGAGYDVHWYQQLPGTAPKLLIYSNNERPSGVPDRFSGSKSGTSASLAISGLRSEDEADYYCAAWDDSLSGPVFGGGTKLTVL | 5.4 | 1.3 | 58.7 | 24 | 92.9 | 1.8 |  |  |  |  |  |  |  | 
4 | TPP-21158 (antibody, V domains shown) VH: EVQLLESGGGLVQPGGSLRLSCAASGFTFSSYGMHWVRQAPGKGLEWVAVISYDGSYKYYADSVKGRFTISRDNSKNTLYLQMNSLRAEDTAVYYCARGVPDYWGQGTLVTVSS VL: QSVLTQPPSASGTPGQRVTISCTGSSSNIGAGYDVHWYQQLPGTAPKLLIYSNNERPSGVPDRFSGSKSGTSASLAISGLRSEDEADYYCAAWDDSLNGPVFGGGTKLTVL | 47 | 13 | 19.4 |  | 73.2 | 2.4 |  |  |  |  |  |  |  | 
5 | TPP-21157 (antibody, V domains shown) VH: EVQLLESGGGLVQPGGSLRLSCAASGFTFSSYGMHWVRQAPGKGLEWVSVISYDGSYKYYADSVKGRFTISRDNSKNTLYLQMNSLRAEDTAVYYCAAGVPDYWGQGTLVTVSS VL: not shown | 13 | 73 | 13.4 |  | 59.2 | 44 |  |  |  |  |  |  |  | 

Results, then the binder that gave them:

Row | Kd (human IL-11 [1]) [nM] | Kd (murine IL-11 [2]) [nM] | Efficacy (%), RGA (human IL-11 [3]) [%] | IC50, RGA (human IL-11 [3]) [nM] | Efficacy (%), RGA (murine IL-11 [4]) [%] | IC50, RGA (murine IL-11 [4]) [nM] | Kd (cynomolgus IL-11) [nM] | Kd (rat IL-11) [nM] | Kd (murine IL-11 [5]) [nM] | Kd (human IL-11 [6]) [nM] | RGA Efficacy (%) (murine IL-11 [7]) | RGA IC50 (murine IL-11 [7]) [nM] | RGA Efficacy (%) (human IL-11 [8]) | RGA IC50 (human IL-11 [8]) [nM] | Binder
6 | 5.1 | 1.1 | 51.2 | 13 | 86.4 | 1.4 |  |  |  |  |  |  |  |  | TPP-27157 (antibody, V domains shown) VH: EVQLLESGGGLVQPGGSLRLSCAASGFTFSSYGMHWVRQAPGKGLEWVAVISYDGSYKYYADSVKGRFTISRDNSKNTLYLQMNSLRAEDTAVYYCAAGVPDYWGQGTLVTVSS VL: QSVLTQPPSASGTPGQRVTISCTGSSSNIGAGYDVHWYQQLPGTAPKLLIYSNNERPSGVPDRFSGSKSGTSASLAISGLRSEDEADYYCAAWDDSLSGPVFGGGTKLTVL
7 |  |  |  |  |  |  | 0.32 | 0.018 | 0.045 | 0.19 | 95.5 | 0.19 | 80.7 | 0.53 | TPP-29402 (antibody, human IgG1, V domains shown) VH: EVQLLESGGGLVQPGGSLRLSCAASGFTFSSYGGHWVRQAPGKGLEWVALISYDGSYKYYADSVKGRFTISRDNSKNTLYLQMNSLRAEDTAVYYCAAGVPDYWGQGTLVTVSS VL: QSVLTQPPSASGTPGQRVTISCSGSSSNIGSGLDVHWYQQLPGTAPKLLIYSNEERPSGVPDRFSGSKSGTSASLAISGLRSEDEADYYCAAWDSSLYGPVFGGGTKLTVL
8 |  |  |  |  |  |  | 0.23 | 0.058 | 0.11 | 0.69 | 96.9 | 0.15 | 83.3 | 1.3 | TPP-29401 (antibody, human IgG1, V domains shown) VH: EVQLLESGGGLVQPGGSLRLSCAASGFTFSSYGGHWVRQAPGKGLEWVAVISYDGSYKYYADSVKGRFTISRDNSKNTLYLQMNSLRAEDTAVYYCAAGVPDYWGQGTLVTVSS VL: QSVLTQPPSASGTPGQRVTISCSGSSSNIGSYYDVHWYQQLPGTAPKLLIYSNEERPSGVPDRFSGSKSGTSASLAISGLRSEDEADYYCAAWDDSLSGPVFGGGTKLTVL
9 | 6.6 | 0.45 | 50.4 | 15 | 90.6 | 1.2 |  |  |  |  |  |  |  |  | TPP-27156 (antibody, V domains shown) VH: EVQLLESGGGLVQPGGSLRLSCAASGFTFSSYGMHWVRQAPGKGLEWVAVISYDGSYKYYADSVKGRFTISRDNSKNTLYLQMNSLRAEDTAVYYCAAGVPDYWGQGTLVTVSS VL: QSVLTQPPSASGTPGQRVTISCTGSSSNIGAGYDVHWYQQLPGTAPKLLIYSNNERPSGVPDRFSGSKSGTSASLAISGLRSEDEADYYCAAWDDSLNGPVFGGGTKLTVL
10 |  |  |  |  |  |  | 0.35 | 0.75 | 0.96 | 0.5 | 87.3 |  | 59.6 | 0.46 | TPP-29400 (antibody, human IgG1, V domains shown) VH: EVQLLESGGGLVQPGGSLRLSCAASGFTFSSYGGHWVRQAPGKGLEWVALISYDGSYKYYADSVKGRFTISRDNSKNTLYLQMNSLRAEDTAVYYCAAGVPDYWGQGTLVTVSS VL: QSVLTQPPSASGTPGQRVTISCSGSSSNIGSDYDVHWYQQLPGTAPKLLIYSNNERPSGVPDRFSGSKSGTSASLAISGLRSEDEADYYCAAWDFSLSGPVFGGGTKLTVL
11 |  |  |  |  |  |  | 0.26 | 0.11 | 0.18 | 0.77 | 94.3 | 0.27 | 82.4 | 1.7 | TPP-29403 (antibody, human IgG1, V domains shown) VH: EVQLLESGGGLVQPGGSLRLSCAASGFTFSSYGGHWVRQAPGKGLEWVALISYDGSYKYYADSVKGRFTISRDNSKNTLYLQMNSLRAEDTAVYYCAAGVPDYWGQGTLVTVSS VL: not shown
12 | 5.8 | 0.65 | 56.5 | 20 | 94.3 | 1.1 |  |  |  |  |  |  |  |  | TPP-27155 (antibody, V domains shown) VH: EVQLLESGGGLVQPGGSLRLSCAASGFTFSSYGMHWVRQAPGKGLEWVSVISYDGSYKYYADSVKGRFTISRDNSKNTLYLQMNSLRAEDTAVYYCAAGVPDYWGQGTLVTVSS VL: not shown
13 |  |  |  |  |  |  | 0.14 | 0.067 | 0.091 | 0.2 | 91.8 | 0.19 | 71.8 | 0.72 | TPP-29404 (antibody, human IgG1, V domains shown) VH: EVQLLESGGGLVQPGGSLRLSCAASGFTFSSYGGHWVRQAPGKGLEWVALISYDGSYKYYADSVKGRFTISRDNSKNTLYLQMNSLRAEDTAVYYCAAGVPDYWGQGTLVTVSS VL: QSVLTQPPSASGTPGQRVTISCSGSSSNIGSYYDVHWYQQLPGTAPKLLIYSNNERPSGVPDRFSGSKSGTSASLAISGLRSEDEADYYCAAWDSSLSGPVFGGGTKLTVL
